We go through one substance from patent US20260263594A1.

Test [1] deals with Holo-transferrin (Homo sapiens (Human)) (UniProt P02787). Put plainly: SPR, Biacore T200, multi-cycle, Tbp-B at 6.17-500 nM; Run-3. In general terms: SPR reads the build-up and loss of mass on a sensor chip optically.
The target is the same in test [2]. Put plainly: SPR, Biacore T200, multi-cycle, Tbp-B at 6.17-500 nM; Run-1.
For test [3] the target is unchanged. Put plainly: SPR, Biacore T200, multi-cycle, Tbp-B at 6.17-500 nM; Run-2.
For test [4] the target is unchanged. As to the kind of experiment: SPR, Biacore T200, multi-cycle, Tbp-B at 6.17-500 nM; average of 3 runs.

pKd: −log10 of the molar value. Values joined by “and” are separate entries in the source; they are usually repeats but may differ in a detail not shown here. Equal entries are not always repeated.

Chain of UniProt P02787 (P02787 20-698 limits assumed, form in doubt): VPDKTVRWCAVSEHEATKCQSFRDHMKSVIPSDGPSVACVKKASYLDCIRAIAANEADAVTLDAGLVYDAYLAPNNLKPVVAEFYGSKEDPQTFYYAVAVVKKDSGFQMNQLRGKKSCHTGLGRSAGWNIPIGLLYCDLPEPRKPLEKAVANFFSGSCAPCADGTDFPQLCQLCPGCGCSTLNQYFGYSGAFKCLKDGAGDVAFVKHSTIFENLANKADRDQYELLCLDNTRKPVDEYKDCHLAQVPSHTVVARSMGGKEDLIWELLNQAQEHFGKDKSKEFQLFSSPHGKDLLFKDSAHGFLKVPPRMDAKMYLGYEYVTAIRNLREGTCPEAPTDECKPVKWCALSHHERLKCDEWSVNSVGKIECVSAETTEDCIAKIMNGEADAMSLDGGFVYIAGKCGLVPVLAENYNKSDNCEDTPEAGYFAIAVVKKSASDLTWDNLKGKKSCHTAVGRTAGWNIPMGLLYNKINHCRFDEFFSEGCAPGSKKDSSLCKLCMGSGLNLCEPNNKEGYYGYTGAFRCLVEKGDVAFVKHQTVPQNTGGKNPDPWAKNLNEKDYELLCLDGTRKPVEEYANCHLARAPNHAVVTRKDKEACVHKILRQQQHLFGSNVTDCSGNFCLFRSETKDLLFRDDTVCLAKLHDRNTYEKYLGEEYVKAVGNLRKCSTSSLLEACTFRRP

With “recombinant transferrin binding protein B (r-Tbp-B) from Neisseria meningitidis serogroup C / serotype 2a (strain FAM18) (receptor)”, the pKd is 8.09 and 7.72 and 7.66 in test [1]; 8.12 and 7.79 and 7.74 in test [2]; 8.09 and 7.68 and 7.72 in test [3]; 8.10 and 7.73 and 7.71 in test [4]. Further, the koff is 0.02 s⁻¹ and 0.009 s⁻¹ in test [1]; 0.0187 s⁻¹ and 0.0081 s⁻¹ and 0.0083 s⁻¹ in test [2]; 0.019 s⁻¹ and 0.009 s⁻¹ in test [3]; 0.019 s⁻¹ and 0.009 s⁻¹ in test [4].

Usually pKd stands for the negative decadic logarithm of the Kd, by convention in mol/L. Usually koff stands for the rate constant with which the complex falls apart. A low value points to a long-lived complex.
